Experimental data: US20210324028A1 (Pfizer, published 2021)

T1: human CD122/CD132 on cells of human PBMCs (human, UniProt P14784 27-551; P31785 23-369)
T1 sequence (looked up) 1: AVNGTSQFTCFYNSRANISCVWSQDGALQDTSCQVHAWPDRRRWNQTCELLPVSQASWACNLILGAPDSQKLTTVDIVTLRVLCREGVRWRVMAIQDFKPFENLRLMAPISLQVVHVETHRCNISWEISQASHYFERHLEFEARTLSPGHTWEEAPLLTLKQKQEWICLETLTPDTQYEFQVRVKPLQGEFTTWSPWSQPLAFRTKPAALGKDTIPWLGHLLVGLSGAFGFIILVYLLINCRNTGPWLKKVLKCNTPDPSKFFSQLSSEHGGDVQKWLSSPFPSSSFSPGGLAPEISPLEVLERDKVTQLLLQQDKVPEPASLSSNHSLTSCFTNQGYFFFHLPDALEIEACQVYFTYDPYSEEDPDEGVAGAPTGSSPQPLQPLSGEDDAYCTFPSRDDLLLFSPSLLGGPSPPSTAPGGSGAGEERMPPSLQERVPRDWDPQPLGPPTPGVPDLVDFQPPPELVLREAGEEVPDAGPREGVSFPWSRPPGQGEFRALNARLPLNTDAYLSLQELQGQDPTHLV
T1 sequence (looked up) 2: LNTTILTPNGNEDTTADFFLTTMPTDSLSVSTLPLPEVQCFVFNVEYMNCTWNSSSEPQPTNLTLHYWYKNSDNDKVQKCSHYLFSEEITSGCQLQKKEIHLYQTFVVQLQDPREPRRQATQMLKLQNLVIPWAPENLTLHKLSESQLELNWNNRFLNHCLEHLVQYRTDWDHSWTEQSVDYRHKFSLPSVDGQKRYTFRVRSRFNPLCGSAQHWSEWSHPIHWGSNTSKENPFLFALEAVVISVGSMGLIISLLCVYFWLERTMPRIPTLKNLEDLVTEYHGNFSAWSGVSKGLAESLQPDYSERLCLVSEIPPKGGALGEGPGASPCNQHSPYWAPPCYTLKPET

T2: IL-15 signaling receptor on 32D[pRF770+pRF791] cells (human CD122 plus mouse CD132) (human; mouse, UniProt P14784 27-551; P34902 23-369)
T2 sequence (looked up) 1: T1 sequence (looked up) 1
T2 sequence (looked up) 2: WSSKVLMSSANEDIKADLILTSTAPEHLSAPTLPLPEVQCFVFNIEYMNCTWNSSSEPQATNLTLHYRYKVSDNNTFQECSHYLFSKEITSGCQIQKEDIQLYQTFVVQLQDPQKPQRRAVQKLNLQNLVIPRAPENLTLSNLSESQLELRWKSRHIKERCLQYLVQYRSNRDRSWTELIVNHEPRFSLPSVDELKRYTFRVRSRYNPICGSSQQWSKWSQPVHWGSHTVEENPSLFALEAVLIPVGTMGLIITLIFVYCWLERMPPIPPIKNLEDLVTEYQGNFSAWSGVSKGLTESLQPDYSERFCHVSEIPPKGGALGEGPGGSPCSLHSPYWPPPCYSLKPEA

T3: mouse PD-1 on doxycycline-induced 32D[pRF770+pRF791] cells (mouse, UniProt Q02242 25-288)
T3 sequence (looked up): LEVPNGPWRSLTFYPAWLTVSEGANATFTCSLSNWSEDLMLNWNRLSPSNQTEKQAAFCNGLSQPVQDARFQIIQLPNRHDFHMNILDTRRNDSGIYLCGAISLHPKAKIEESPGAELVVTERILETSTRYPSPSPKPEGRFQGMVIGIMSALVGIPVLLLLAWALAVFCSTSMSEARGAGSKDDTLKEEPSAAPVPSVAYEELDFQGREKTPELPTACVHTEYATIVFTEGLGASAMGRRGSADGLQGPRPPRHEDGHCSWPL

T4: human IL-2Rβ (human, UniProt P14784 27-240, limits assumed)
T4 construct: also called hIL-2Rβ; IL-2 receptor beta
T4 sequence (looked up): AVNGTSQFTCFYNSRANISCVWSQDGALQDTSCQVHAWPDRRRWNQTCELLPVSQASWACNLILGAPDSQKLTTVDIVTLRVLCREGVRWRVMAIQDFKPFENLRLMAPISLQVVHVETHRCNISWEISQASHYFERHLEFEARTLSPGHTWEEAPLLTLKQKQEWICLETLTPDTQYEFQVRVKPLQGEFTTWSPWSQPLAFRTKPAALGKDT

B1: xhPD-1-IL15 m1 (other)
heavy 1: not shown
heavy 2: not shown
light: DIQMTQSPSSLSASVGDRVTITCKSSQSLWDSGNQKNFLTWYQQKPGKAPKLLIYWTSYRESGVPSRFSGSGSGTDFTLTISSLQPEDFATYYCQNDYFYPLTFGGGTKVEIKRTVAAPSVFIFPPSDEQLKSGTASVVCLLNNFYPREAKVQWKVDNALQSGNSQESVTEQDSKDSTYSLSSTLTLSKADYEKHKVYACEVTHQGLSSPVTKSFNRGEC
B2: xhPD-1-IL15 m2 (other)
heavy 1: not shown
heavy 2: not shown
light: B1 light
B3: xmPD-1-hIL15 V49R/Y26K/E64Q/D30N (other)
heavy 1: HHHHHHHHGGGGSGSGGEVQLVESGGGLVKPGGSLELSCAASGFTFSSYWMSWVRQAPEKGLEWVAAISPSGGSTYYADSVKGRFTISRDNAKNTLFLQMTSLRSEDTAMYYCAKESWGAYYDLWGQGTTVTVSSASTKGPSVFPLAPCSRSTSESTAALGCLVKDYFPEPVTVSWNSGALTSGVHTFPAVLQSSGLYSLSSVVTVPSSNFGTQTYTCNVDHKPSNTKVDKTVERKCRVRCPRCPAPPVAGPSVFLFPPKPKDTLMISRTPEVTCVVVAVSHEDPEVQFNWYVDGVEVHNAKTKPREEQFNSTFRVVSVLTVVHQDWLNGKEYKCKVSNKGLPSSIEKTISKTKGQPREPQVYTLPPSREEMTKNQVSLTCLVKGFYPSDIAVEWESNGQPENNYKTTPPMLDSDGSFFLYSRLTVDKSRWQQGNVFSCSVMHEALHNHYTQKSLSLSPGK
heavy 2: EVQLVESGGGLVKPGGSLELSCAASGFTFSSYWMSWVRQAPEKGLEWVAAISPSGGSTYYADSVKGRFTISRDNAKNTLFLQMTSLRSEDTAMYYCAKESWGAYYDLWGQGTTVTVSSASTKGPSVFPLAPCSRSTSESTAALGCLVKDYFPEPVTVSWNSGALTSGVHTFPAVLQSSGLYSLSSVVTVPSSNFGTQTYTCNVDHKPSNTKVDKTVERKCEVECPECPAPPVAGPSVFLFPPKPKDTLMISRTPEVTCVVVAVSHEDPEVQFNWYVDGVEVHNAKTKPREEQFNSTFRVVSVLTVVHQDWLNGKEYKCKVSNKGLPSSIEKTISKTKGQPREPQVYTLPPSREEMTKNQVSLTCEVKGFYPSDIAVEWESNGQPENNYKTTPPMLDSDGSFFLYSKLTVDKSRWQQGNVFSCSVMHEALHNHYTQKSLSLSPGSGGGGGTSATATPGANWVNVISDLKKIEDLIQSMHIDATLKTESNVHPSCKVTAMKCFLLELQRISLESGDASIHDTVQNLIILANNSLSSNGNVTESGCKECEELEEKNIKEFLQSFVHIVQMFINT
light: DIVMTQSPSSLSVSAGDKVTMSCRASQGISSWLAWYQQKPWQPPKLLIYKASTLESGVPDRFTGSGSGTDFTLTISSVQAEDLAVYYCQQSYSTPWTFGGGTKLEIKGTVAAPSVFIFPPSDEQLKSGTASVVCLLNNFYPREAKVQWKVDNALQSGNSQESVTEQDSKDSTYSLSSTLTLSKADYEKHKVYACEVTHQGLSSPVTKSFNRGEC
notes: not restated for this mutant; also called xmPD1 -V49R/Y26K/E64Q/D30N

Key:
[1] = molecular target: T1, human CD122/CD132 on cells of human …; assay: cell-based or functional assay
[2] = molecular target: human PD-1 on cells of human PBMCs (human, UniProt Q15116 25-288); assay: cell-based or functional assay
human IL-15Rα = molecular target: T5, human IL-15Rα (human, UniProt Q13261 31-205, limits assumed); assay: SPR 37C, fusion captured by anti-human Fc
T5 construct: also called hIL-15Rα; IL-15 receptor alpha
In short: (§1)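 Anti-PD-1–hIL-15 fusions captured at 10 μg/mL on an anti-human Fc surface, receptor injected at 37 °C in HEPES-buffered saline with 0.05% Tween-20 and 1 mg/mL BSA, pH 7.4; 5 min dissociation.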

[3] = molecular target: T2, IL-15 signaling receptor on …; assay: cell-based or functional assay
[4] = molecular target: T3, mouse PD-1 on doxycycline-induced …; assay: cell-based or functional assay
human IL-2Rβ = molecular target: T4, human IL-2Rβ; assay: SPR, fusion captured
In short: as §1

Chain of human PD-1 on cells of human PBMCs (Q15116 25-288): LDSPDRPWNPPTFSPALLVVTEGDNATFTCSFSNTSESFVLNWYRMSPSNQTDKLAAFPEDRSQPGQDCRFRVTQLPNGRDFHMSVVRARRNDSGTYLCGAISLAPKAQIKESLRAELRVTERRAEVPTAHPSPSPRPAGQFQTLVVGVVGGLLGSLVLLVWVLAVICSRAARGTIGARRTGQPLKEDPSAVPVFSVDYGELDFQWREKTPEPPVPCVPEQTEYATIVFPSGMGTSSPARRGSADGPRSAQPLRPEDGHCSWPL
T5 sequence (Q13261 31-205 limits assumed): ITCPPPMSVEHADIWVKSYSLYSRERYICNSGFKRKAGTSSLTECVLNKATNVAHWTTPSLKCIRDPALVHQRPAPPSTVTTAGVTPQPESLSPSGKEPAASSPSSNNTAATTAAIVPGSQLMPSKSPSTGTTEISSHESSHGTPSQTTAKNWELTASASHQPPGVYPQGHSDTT

Binder	pSTAT5 EC50 on human NK cells (hPBMC) [1] [nM]	Fold change = EC50 (Isotype control--IL15)/EC50 (xhPD1--IL15), CD8+cm T cells [2] [fold]	Fold change = EC50 (Isotype control--IL15)/EC50 (xhPD1--IL15), NK cells [2] [fold]	pSTAT5 EC50 on human CD8+cm T cells (hPBMC) [2]	binding result (human IL-15Rα)	pSTAT5 EC50 on PD-1(low) 32D reporter cells [3] [nM]	Fold change = EC50 (PD-1(low))/EC50 (PD-1+) [4] [fold]	pSTAT5 EC50 on PD-1+ 32D reporter cells [4] [pM]	Kd (human IL-2Rβ) [nM]
B1	0.475	47	1.99	78 pM					
B2	8.27	76.5	1.36	0.492 nM					
B3					no binding (tested: 3000 nM)	21.4	382	56.1	> 1500
